Results: patent publication US20210388087A1 (Chugai, published 2021)
Where a chain is given by its changes, count along the chain named. Blank lines part the entries; values can stand above or below the binder they belong to.

Target: T1, Human CD137 ECD (human)
T1 construct: entry includes C-terminal His-tag and biotin acceptor peptide; also called human CD137 extracellular domain; 4-1BB
Assay: Biacore SPR, vs parent H183/L072

T1 sequence (chain, as listed by the source limits assumed): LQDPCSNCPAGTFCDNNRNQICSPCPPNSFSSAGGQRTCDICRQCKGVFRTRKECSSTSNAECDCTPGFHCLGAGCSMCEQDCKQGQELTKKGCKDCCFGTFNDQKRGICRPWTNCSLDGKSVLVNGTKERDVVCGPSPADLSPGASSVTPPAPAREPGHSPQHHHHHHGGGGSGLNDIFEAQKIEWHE

fold change of affinity: 0.2 fold
B1: H183/L072 VL T92L (antibody, name in Kabat numbering, V domains shown)
VH: QVQLVESGGGLVQPGRSLRLSCAASGFTFSNAWMHWVRQAPGKGLEWVAQIKDKGNAYAAYYAPSVKGRFTISRDDSKNSIYLQMNSLKTEDTAVYYCHYVHYASASTVLPAFGVDAWGQGTTVTVSS
VL: DIVMTQSPLSLPVTPGEPASISCQASQELVHMNRNTYLHWYQQKPGQAPRLLIYKVSNRFPGVPDRFSGSGSGTDFTLKISRVEAEDVGVYYCAQGLSVPFTFGQGTKLEIK
notes: Dual-Ig

fold change of affinity: 0.7 fold
B2: H183/L072 VL T97Q (antibody, name in Kabat numbering, V domains shown)
VH: B1 VH
VL: B1 VL with L97T, T102Q
notes: Dual-Ig

fold change of affinity: 0.5 fold
B3: H183/L072 VL V27cA (antibody, name in Kabat numbering, V domains shown)
VH: B1 VH
VL: B1 VL with V30A, L97T
notes: Dual-Ig

fold change of affinity: 1 fold
B4: H183/L072 VL T97V (antibody, name in Kabat numbering, V domains shown)
VH: B1 VH
VL: B1 VL with L97T, T102V
notes: Dual-Ig

fold change of affinity: 0.7 fold
B5: H183/L072 VL V27cE (antibody, name in Kabat numbering, V domains shown)
VH: B1 VH
VL: B1 VL with V30E, L97T
notes: Dual-Ig

fold change of affinity: 0.8 fold
B6: H183/L072 VL T97S (antibody, name in Kabat numbering, V domains shown)
VH: B1 VH
VL: B1 VL with L97T, T102S
notes: Dual-Ig

fold change of affinity: 0.6 fold
B7: H183/L072 VL T97H (antibody, name in Kabat numbering, V domains shown)
VH: B1 VH
VL: B1 VL with L97T, T102H
notes: Dual-Ig

fold change of affinity: 0.6 fold
B8: H183/L072 VL V27cF (antibody, name in Kabat numbering, V domains shown)
VH: B1 VH
VL: B1 VL with V30F, L97T
notes: Dual-Ig

fold change of affinity: 0 fold
B9: H183/L072 VL T92N (antibody, name in Kabat numbering, V domains shown)
VH: B1 VH
VL: B1 VL with L97N
notes: Dual-Ig

fold change of affinity: 0.6 fold
B10: H183/L072 VL T97G (antibody, name in Kabat numbering, V domains shown)
VH: B1 VH
VL: B1 VL with L97T, T102G
notes: Dual-Ig

fold change of affinity: 0 fold
B11: H183/L072 VL T92P (antibody, name in Kabat numbering, V domains shown)
VH: B1 VH
VL: B1 VL with L97P
notes: Dual-Ig

fold change of affinity: 1.3 fold
B12: H183/L072 VL T97I (antibody, name in Kabat numbering, V domains shown)
VH: B1 VH
VL: B1 VL with L97T, T102I
notes: Dual-Ig

fold change of affinity: 0.3 fold
B13: H183/L072 VL V27cD (antibody, name in Kabat numbering, V domains shown)
VH: B1 VH
VL: B1 VL with V30D, L97T
notes: Dual-Ig

fold change of affinity: 0 fold
B14: H183/L072 VL T97P (antibody, name in Kabat numbering, V domains shown)
VH: B1 VH
VL: B1 VL with L97T, T102P
notes: Dual-Ig

fold change of affinity: 0 fold
B15: H183/L072 VL T92W (antibody, name in Kabat numbering, V domains shown)
VH: B1 VH
VL: B1 VL with L97W
notes: Dual-Ig

fold change of affinity: 0.1 fold
B16: H183/L072 VL T97W (antibody, name in Kabat numbering, V domains shown)
VH: B1 VH
VL: B1 VL with L97T, T102W
notes: Dual-Ig

fold change of affinity: 1.1 fold
B17: H183/L072 VL T97K (antibody, name in Kabat numbering, V domains shown)
VH: B1 VH
VL: B1 VL with L97T, T102K
notes: Dual-Ig

fold change of affinity: 1.1 fold
B18: H183/L072 VL T97M (antibody, name in Kabat numbering, V domains shown)
VH: B1 VH
VL: B1 VL with L97T, T102M
notes: Dual-Ig

fold change of affinity: 0 fold
B19: H183/L072 VL T92Q (antibody, name in Kabat numbering, V domains shown)
VH: B1 VH
VL: B1 VL with L97Q
notes: Dual-Ig

fold change of affinity: 0 fold
B20: H183/L072 VL T97D (antibody, name in Kabat numbering, V domains shown)
VH: B1 VH
VL: B1 VL with L97T, T102D
notes: Dual-Ig

fold change of affinity: 0.6 fold
B21: H183/L072 VL V27cH (antibody, name in Kabat numbering, V domains shown)
VH: B1 VH
VL: B1 VL with V30H, L97T
notes: Dual-Ig

fold change of affinity: 0 fold
B22: H183/L072 VL T92R (antibody, name in Kabat numbering, V domains shown)
VH: B1 VH
VL: B1 VL with L97R
notes: Dual-Ig

fold change of affinity: 0.4 fold
B23: H183/L072 VL T92M (antibody, name in Kabat numbering, V domains shown)
VH: B1 VH
VL: B1 VL with L97M
notes: Dual-Ig

fold change of affinity: 0.4 fold
B24: H183/L072 VL T97E (antibody, name in Kabat numbering, V domains shown)
VH: B1 VH
VL: B1 VL with L97T, T102E
notes: Dual-Ig

fold change of affinity: 0.3 fold
B25: H183/L072 VL T97F (antibody, name in Kabat numbering, V domains shown)
VH: B1 VH
VL: B1 VL with L97T, T102F
notes: Dual-Ig

fold change of affinity: 0.5 fold
B26: H183/L072 VL T97N (antibody, name in Kabat numbering, V domains shown)
VH: B1 VH
VL: B1 VL with L97T, T102N
notes: Dual-Ig

fold change of affinity: 0.3 fold
B27: H183/L072 VL T92V (antibody, name in Kabat numbering, V domains shown)
VH: B1 VH
VL: B1 VL with L97V
notes: Dual-Ig

fold change of affinity: 0.9 fold
B28: H183/L072 VL T97R (antibody, name in Kabat numbering, V domains shown)
VH: B1 VH
VL: B1 VL with L97T, T102R
notes: Dual-Ig

fold change of affinity: 0 fold
B29: H183/L072 VL T92S (antibody, name in Kabat numbering, V domains shown)
VH: B1 VH
VL: B1 VL with L97S
notes: Dual-Ig

fold change of affinity: 0.6 fold
B30: H183/L072 VL T97A (antibody, name in Kabat numbering, V domains shown)
VH: B1 VH
VL: B1 VL with L97T, T102A
notes: Dual-Ig

fold change of affinity: 0.4 fold
B31: H183/L072 VL V27cG (antibody, name in Kabat numbering, V domains shown)
VH: B1 VH
VL: B1 VL with V30G, L97T
notes: Dual-Ig

fold change of affinity: 1 fold
B32: H183/L072 VL V27cI (antibody, name in Kabat numbering, V domains shown)
VH: B1 VH
VL: B1 VL with V30I, L97T
notes: Dual-Ig

fold change of affinity: 0.3 fold
B33: H183/L072 VL T97L (antibody, name in Kabat numbering, V domains shown)
VH: B1 VH
VL: B1 VL with L97T, T102L
notes: Dual-Ig
